The values below come from publication PMC3787745, “Yeast Mnn9 is both a priming glycosyltransferase and an allosteric activator of mannan biosynthesis” (Open Biology, 2013).

Substrate in series [1]: Nc1nc2c(ncn2[C@@H]2O[C@H](COP(=O)(O)OP(=O)(O)O[C@H]3O[C@H](CO)[C@@H](O)[C@H](O)[C@@H]3O)[C@@H](O)[C@H]2O)c(=O)[nH]1
Nature of the series: coupled fluorimetric assay with Aman6 mannosidase (4-MU release). The series is classed as biochemical, Saccharomyces cerevisiae. To be noted: donor varied 0-1.2 mM, 10 mM 4MU-Man, 10 mM MnCl2, 20 mM HEPES pH 7.5, 500 nM enzyme.

Substrate in series [2]: Cc1cc(=O)oc2cc(O[C@H]3O[C@H](CO)[C@@H](O)[C@H](O)[C@@H]3O)ccc12
The description is as above. The series is classed as biochemical, Saccharomyces cerevisiae. The note with it: acceptor varied 0-10 mM, 1.2 mM GDP-Man, 10 mM MnCl2, 20 mM HEPES pH 7.5, 500 nM enzyme.

B1: ScMnn9 (Saccharomyces cerevisiae S288C) (protein)
chain: EGHIAHYDLNKLHSTSEAAVNKEHILILTPMQTFHQQYWDNLLQLNYPRELIELGFITPRTATGDLALKKLENAIKKVQTDKKTQRFSKITILRQNSQSFDKLMEKERHALDVQKERRAAMALARNELLFSTIGPHTSWVLWLDADIIETPPSLIQDMTKHNKAILAANIYQRFYDEEKKQPSIRPYDFNNWQESDTGLEIASQMGDDEIIVEGYAEIATYRPLMAHFYDANGVPGEEMALDGVGGGCTLVKAEVHRDGAMFPNFPFYHLIETEGFAKMAKRLNYDVFGLPNYLVYHIEEENH
notes: glycosyltransferase domain 93-395, lacking first 92 residues; N-terminal MBP-His6-TEV tag cleaved; E. coli BL21(DE3) pLysS
As to B1, the Km in series [1] is 0.5 (± 0.2) mM; in series [2] it was 6.5 (±0.3) mM. Moreover, the kcat in series [1] was found to be 0.0633 s⁻¹; in series [2], 0.0033 s⁻¹.

Usually kcat stands for the number of substrate molecules converted per active site and unit of time at saturation.
